From the nanobody polyreactivity screen of Harvey et al. (2022)

Experiment: yeast display, Sf9 membrane polyspecificity reagent, FACS + sequencing; frameworks hold sequencing errors
Summary of the method: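 After 36–48 hours of galactose induction, yeast (Saccharomyces cerevisiae BJ5465) displaying a synthetic nanobody library were stained at 4 °C for 1 hour with 10% biotinylated, detergent-solubilized Sf9 membrane reagent. Streptavidin microbeads enriched the stained cells before FACS sorting into low and high (top ~1%) gates on anti-HA and streptavidin fluorescence. Each clone's polyreactivity label reflects its gate of origin.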

Sequence	polyreactivity (PSR sort gate)
QVQLVESGGGLVQAGGSLRLSCAASGRTFVNYTMGWYRQAPGKERELVAAVSWTGGRTYYADSVKGRFTISRDNAKNTVYLQMNSLKPEDTAVYYCATQPEKSGRPAIDPELYDYWGQGTQVTVSS	low polyreactivity
QVQLVESGGGLVQEGGSLRLSCAASGSIFGRNVMGWYRQAPGKERELVAAISEGGGRTYYADSVKGRFTISRDNAKNTVYLQMNSLKPEVTAVYYCAAAYFSSGYKYYYWGQGTQVTVSS	high polyreactivity
QVQLVESGGGLVQAGGSLRLSCAASGRTFWYYTMGWYRQAPGKERELVASISRVTSTYYADSVKGRLTISRDNAKNTVYLQMNSLKPEDTAVYYCAADRTRYYVGYRWTGNKMDYWGQGSQVTVSS	low polyreactivity
QVQLVESGGGLVQAGGSLRLSCAASGRTFGGNAMGWYRQAPGKERELVAAISLSGGTTYYADSVKGRFTISRDNAKNTVYLQMHSLKPEDTAVYYCAARFKSVDYVQYYYWGQGTQVTVSS	low polyreactivity
QVQLVESGGGLVQAGGSLRLSCAASGRIFIRNAMGWYRQAPGKERELVAAITWSGGGTYYADSVKGRFTISRDNAKNTVYLQMNSLKPEDTAVYYCNVDITGYEDDYWGQGTQVTVSS	low polyreactivity
QVQLVESGGGLVQAGGSLRLSCAASGSISYIYTMGWDRQAPGKQRELVAAMSGSGSTYYADSVKGRFTISRDNAKNTVYLQMNSLKQEDTAVHYCNAGSGGLNFQEVPHGYDYWGQGTQVTVSS	low polyreactivity
QVQLVESGGGLVQAGGSLRLSCAASGRTFGPYAMGWYRQAPGKEREFVAAISYSGGSTYYADSVKGRFTISRDNAKNTVYLQMNSLKPEDTAVYYCAAETYYGRIYWYIRDYWGQGTQVTVSS	low polyreactivity
QVQLVESGGGLVQAGGSLRLSCAASGLIFSWYDMGWYRQAPGKERELVDAITTDGDDTYYADSVKGRFTISRDNAKNTVYLQMKSLKPEDTAVYYCDAVSEVAIRYPDRDYDSWGQGTQVTVSS	low polyreactivity
QVQLVESGGGLVQAGGSLRLSCAASGFIFYKNAMGWYRQAPGKERELVAAISSRGGSTSYADSVKGLFTISRDNAKNTVYLQMNSLKQEDTAVYYCAAYPDYSYFYWGQGTQVTVSS	high polyreactivity
QVQLVESGGGLVQAGGSLRLSCAASGFTFVRYAMGWYRQAPGKERELVAVISRSGGSTNYADSVKGRFTISRDNAKNTVYLQMNSLKAEDTAVYYCNVVVKGAWDYYPYDYWGQGTQVTVSS	high polyreactivity
QVQLVESGGGLVQAGGSLRLSCAASGRTFLYYAMGWYRQAPGKERELVAAISSGGSTNYADSVKGRFTISRDNAKNTVYLQMNSLKPEDTAVYYCNADYTSRDTSDVIYEYDYWGQGTQVTVSS	low polyreactivity
QVQLVESGGGLVQAGGSLRLSCAASGFIFSRYAMGWYRQAPGKERELVAAIRFSGSITYYADSVKGRFTISRDNAKNTVYLQMNSLKPEDTAVYYCAAYRRYYGWYEYWGQGTQVTVSS	high polyreactivity
QVQLVESGGCLLQAGGSLSLSCAASGSTSPANTMGWYRQAPGKEREFVAGISRRGGRTYYADSVKGRFTISRDTAKNTVYLQMNSLKPEDTAVYYSATALIVRGPSRYEYWGHGTQVTVSS	high polyreactivity
QVQLVESGGGLVQAGGSLRLSCAASGNTFQYYAMGWYRQAPGKEREFVAAISRRGGSTYYADSVKGRFTISRDNAKNTVYLQMNSLKPEDTAVYYCNKVIVLSQSSYSFHYAYDYWGQGTQVTVSS	high polyreactivity
QVQLVESGGGLVQAGGSLRLSCAASGTITSYAMGWYRQAPGKERELVASIRYRGGSTYYADSVKGRFTISRDNAKNTVYLQMNSLKPEDTAVYYCAADNFAPEFYYWGQGTQVTVSS	low polyreactivity
QVQLVESGGGLVQAGGSLRLSCAASGNNIVINAMGWYRPAPGKERELVAAINWTGGNTYYADSVKGRFTISRDNAKNTVYLQMNSLKPEDSAVYYCAADRRWFVWGLGYWGQGTQVTVSS	low polyreactivity
QVQLQESGGGLVQAGGSLRLSCAASGNIVDADIMGWYRQAPGKERELVASITDGGSTNYADCVKGRFTISRDNAKNTVYLKMNSLKPEDTAVYYCAAIAYPDIPTYFDYDSEYFYWGQGTQVTVSS	low polyreactivity
QVQLVESGGGLVQAGGSLRLSCAASGRIFGVNAMGWYRQEPGKERELVAAISAGGGNTYYADSVKGRFTISRDNAKNTVYLQMNSLKPEDTAVYYCNVHRSLRMDYWGQGTQVTVSS	high polyreactivity
QVQLVESGGGVVQAGGSLRLSCAASRRTFTYYDMGWYRQAPGKERELVAGITARGGSTYADSVKGRFTISRDNAKNTVYLQMNSLKPEDTAVYYCAADLYTSLDSTYVYWGQGTQVTLSS	low polyreactivity
QVQLEESGGGLVQAGGSLRLSCADSGSTLYWNAMGWYRQAPGKERELVAVISESGGTTYYADSVKGRFTISRDNAKNTVYLQMNSLKPEDTAVYYCAAVWYYQFGVWGYYWGQGTQVTVSS	low polyreactivity
QVQLVESGGGLVQAGGSLRLSCAASGSTFVYYAMGWYRQAPGKEREFVAAISTNGGSTYYADSVKGRFTISRDNAKNTVYLQMNSLKPEDTAVYYCAARWYWGQGTQVTVSS	high polyreactivity
QVQLVESGGGLVQAGGSLRLSFAASGFIFYRYVMGWYRQAPGKERELVAAITWSGGSTYYADSVKGRFTISRDNAKNTVYLQMNSLKPEDTAVYYCNAESNLYFRYDYWGQGTQVTVSS	low polyreactivity

Sequence	polyreactivity (PSR sort gate)
QVQLVESGGGLVQAGGSLRLSCAASGSIFDLYAMGWYRQAPGKERELVAGISYSGGSTYYADSVKGRFTISRDNAKNTVYLQMNSLKPEDTAVYYCAADDSYWYDNYIDEAAANTFDYWGQGTQVTVSS	low polyreactivity
QVQLVESGGGLVQAGGSLRLSCAASGSTFVGYAMGWYRQAPGKERELVADIDSIGGSTYYADSVKGRFTISRDNAKNTVYLQMNSLKPEDTAVYYCAARRFDTALVLYDYCGQGTQVTVSS	low polyreactivity
QVQLVESGGGLVQAGGSLRLSCAAYGRTFSHYAMGWYRQAPGKERELVAGITSGGRTYYADSVKGRFTISRDNAKNTVYLQMNSLKPEDTEVYYCAIRRYTAIWYGYWGQGTQETVSS	high polyreactivity
QVQLVESGGGLVQAGGSLRLSCAASGSTFYKYGMGWYRQAPGTERELVAAISGSGDSTYYADSVKGRFTISRDNAKNTVYLQMNSLKPEDTAVYYCNAGPWWYLHEYDYWGQGTQVTVSS	low polyreactivity
QVQHVESGGGLVQAGGSLRLSCAASGFTFYSYVMGWYRQAPGKERELVAAITRGGSTYYADSVKGRFTISRDNAKNTVYLQMTSLKPEDTAVYYCAKRPSYGYNYWGHGTQVTVSS	low polyreactivity
QVQLVESGGGLDQAGGCLRLSCAASGRIFKYNAMGWYRQAPGTERELVAAISWNGDSTYYADSVKGRFTISRDIAKYTVYLQMNRLKPEDTAVYYCAVTGDYDMEYWGQGTQVTVSS	low polyreactivity
QVQLVESGGGLVQAGGSLRLSCAASGLTSNGYHMGWYRQAPGKERELVAGITSGGSTYYADSVKGRFTISRDNAKNTVYLQMNSLKPEDTAVYYCNADVTYYIVWEYDYWGQGTQVTVSS	low polyreactivity
QVQHVESGGGLVQAGGSLRLSCAASGRTLIYNAMGWYRQAPGKERELVAAITGGGGRTYYADSVKGRFTISRDNAKNTVYLQMNSLKPEDTAVYYCAVAGTVLSHMGYWGQGTQVTVSS	low polyreactivity
QVQLVESGGGLVQAGGSLRLSCAASGSILRTYTMGWYRQATGKERELVAAISSSGGRTYYADSVKGRFTISRDNAKNTVYLQMNSLKPEDTAVYYCNAGGYRYRSYDYWGQGTQVTVSS	high polyreactivity
QVQLVESGGGLVQAGGSLRLSCAASGRTFSRKAMRWYRQAPGKERELVASISRSGGSTYYADSVKGRFTISRDIAKNTVYLQMNSLKPEDTAVYYCAASYWHRRYDYWGQGTQVTVSS	high polyreactivity
QDQHVESGGGLVQAGGSLRLSCAASGITSKNYAMGWSRQAPGKERELVAVISGRGGSTYYADSVKGRFTITRDNAKNTVYLQMNCLKPEDTAVYYCAAYGNQRRGAYPYKYDYWGQGTQVTVSS	high polyreactivity
QVQLVESGGGLVQAGGSLRLSCAASGYIFINNAMGWYRQAPGKERELVAAISFNSGSTYYADSVKGRFTISRDNAKNTVYLQMNSLKPEDTAVYYCAADYEGWGYDYRGDYWGQGTQVTVSS	low polyreactivity
QVQHVESGGRLVQAGGSLRLSCAASGSIFGRYVMGWYRQAPGKESELVAAISGSGGSTNYADSVKGRFTISRDNAKNTVYLQMNSLKPEDTAVYYCATLRWFWYTRSTRIGDYWGQGTQVTVSS	high polyreactivity
QVQLVESGGGLVQAGGSLRLSCAASGFISDWYAMGWYRQAPGTERELVATIDWIGGSTYADSVKGRFTISRDNAKNTVYLQMNSLKPEDTAVYYCAADSYFIAWYGAHYAYDYWGQGTQVTVSS	low polyreactivity
QVQLVESGGGLVQAGGSLRLSCAASGRTFARNAMGWYRPAPGKERELVAAIPRSGGSTYYADSVKGRFTISRDNAKNTVYLQMNSLKPEDTADYYCAAVGTGSSLRYDYWGQGTQVTVSS	high polyreactivity
QVHLVESGGGLVQAGGSLRLSCAASGGTFRTYAMGWYRQAPGTERELVAAITWRGGSTYYADSVKGRFTISRDNAKNTVYLQMNSLKPEDTAVYYCAARGAYQWSFYKDDYWGQGTQVTVSS	high polyreactivity
QVQLVDSGGGLVQAGGSLLLSCAASGSISYQNAMGWYRQAPGKERELVAANSGDGDSTYYADSVKGRFTISRDNAKNTVYLQMNRLKPEDTAVYYCAAEPNVYFSVFVLFTSDYWGQGTLVTVSS	low polyreactivity
QVQLVESGGGLVQAGGSLRLSCAASGGIFNINAMGWYRQAPGKERELVASIRGSGGRTYYADSVKGRFTISRDNAKNTVYLQMNSLKPEDTAVYYCNAESYSTWSFGHRYEYDYWGQGTQVTVSS	low polyreactivity
QVLLQESGGGLVQAGGSLRLSCAASGNIFSAGGMGWYRQAPVKELELVAGIGTGTSTNYADSVKGRFTISRDNAKNTVYLQMNSLKPEDTAVYYCAADSYPAYLGFVGFDYWGQGTQVNVSS	low polyreactivity
QVQLEESAGGLVQAGGSHRLSCADTGRTFRWYAMGWYRQAPGKERELVAAISRNGGSTSFADSVKGRFTISRDNAKKTVYLQLNSLKPEDTAVYYCAAGSRVQWYGYDYWGQGTQVTVSS	high polyreactivity
QVQLVESGGGIVQAGGSLRLSCAASGSIFYPYVMGWYRQAPGKERELVAAITTSVGSTYYADSVKGRFTISRDHAKNTVYLQMNSLKPEDTAVYYCAAKYFGSRRPGRYNYWGQGTQVTVSS	high polyreactivity
